The values below come from the nanobody polyreactivity screen of Harvey et al. (2022).

This data set in a line: yeast display, Sf9 membrane polyspecificity reagent, FACS + sequencing; frameworks hold sequencing errors. Put shortly: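 Nanobodies from a synthetic yeast display library (Saccharomyces cerevisiae BJ5465), induced 36–48 hours with galactose, were stained 1 hour at 4 °C with 10% biotinylated, detergent-solubilized Sf9 membrane reagent, enriched on streptavidin microbeads, then FACS-sorted. Anti-HA (expression) and streptavidin (reagent binding) fluorescence set low and high (top ~1%) gates. Polyreactivity labels come from the gate of origin. Genes were colony-PCR amplified, MiSeq 2 × 250 sequenced and filtered by CDR length.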
As for “QVQLVESGGGLVQAGGSLRLSCAASGSIFRFYAMGWYRQAPGKERELVATISKRGGTTYYADSVKGRFTISRDNAKNTVYLQMNSLKPEDTAVYYCAVRLYLEMDYWGQGTPVTVSS”, the “polyreactivity (PSR sort gate)” value is reported as “high polyreactivity”.

Turning to “QVQLVESGGGLVQAGGSLRLSCAASGRTSGKNAMGSYRQATRKEREMVAAISSSGGSTYYADSVKGRFTISRDNAKNTVYLQMNSLKPEDTAVYYCAAKYFRKYSQIGPDMYYWGQGTQVTVSS”, the “polyreactivity (PSR sort gate)” value is “high polyreactivity”.

Take “QVQRVESGGGLVQAGGSHPLSCAASGITLRYYAMGWYRQAPGKERELVAAISGRGGGTYYADSVKGRFTISRDNAKNTVYLQMNSLKPEDTAVYYCNAVGQQQVEYEYWGQGTQVTVSS”: the “polyreactivity (PSR sort gate)” value is recorded as “high polyreactivity”.

For the sequence “QVQLVESGGGLVQAGGSLRLSCAASGRTFFGYAMGWCRQARGKEREFVAAISGSGGSTYYADSVKGRFTISRDYAKNTVYFKMNSLKPEDTAVYYCNAEYWGEYYYFGQGTQVTVSS”, the “polyreactivity (PSR sort gate)” value is given as “low polyreactivity”.

As to “QVQLVESGGGLVQAGGSLRLSCAASGFIFDGNAMGWYRQAPGKERELVAAISSDGGTYYADSVKGRFTISRDNAKNTVYLQMNSLKPEDTAVYYCAAEQTLLYSFGWDEYWGQGTQVTVSS”, the “polyreactivity (PSR sort gate)” value is reported as “low polyreactivity”.

For “QVQLVESGGGLVQAGGSLRLSCAASGSTFISYAMGWYRQAPGKERELVAAISSSGGSTYYADSVKGRFTISRDNAKYTVYLQMNSLKPEDTAVYYCAAESVYYRSWRYYYWGQGTQVTVSS”, the “polyreactivity (PSR sort gate)” value is on record as “high polyreactivity”.

Take “QVQLVESGGGLVQAGGSLRLSCAASGRTFSIYAMGWYRQAPGKERELVASITGRGGSTYYADSVKGRFTISRDNAKNTVYLQMNSLKPEDTAVYYCAADSYKPDGYRLRNDYWGQGTQVTVSS”: the “polyreactivity (PSR sort gate)” value is “high polyreactivity”.

With “QVQLVESGGGLVQAGGSLRLSCAASGSIFYHNAMGWYSPAPGKERELVAAISASGSTYYADSVKGRFTISRDNAKNTVSLQMNSLKTEDTAVYYCTFYWYNYWGQGTQVTVSS”, the “polyreactivity (PSR sort gate)” value is “high polyreactivity”.

Regarding “QVQLEESAGGLVQAGGSLRLSCAASGRIFKAYAMGWYRQAPGKERELVASISRDGSTSYADSVKGRFTISRDNEKNTVYLQMNSLKPEDTAVFYCAGPSYRTRYYFWGQGTQVNVSS”, the “polyreactivity (PSR sort gate)” value was “high polyreactivity”.

Take “QVQLVESGGGLVQAGGRLRLSCAASGFIYENAMGWYRQAPGKERELVAAISYSGGCTYYADSVKGRFTISRDNAKNTVYLQMNSLKPEDTAVYVCAADTQGYDYDYWGQGTQVTVSS”: the “polyreactivity (PSR sort gate)” value was “low polyreactivity”.

Take “QVQLVESGGGLVQAGGSLRLSCAASGIILQKYTMGWYRQAPGKERELVAASTRSGGSTYYADSVKGRFTISRDNAKNTVYLQMNSLKPEDTAVYYCYGYEYWGQGTQVTVSS”: the “polyreactivity (PSR sort gate)” value is recorded as “high polyreactivity”.

For “QVQLVESGGGLVQAGGSLRLSCAASGSTFRYYAMGWYRQAPGKERELVASISSGGSTNYADSVKGRFTISRDNAKNTVYLQMNSLKPEDTAVYYCNADSWTVNRRYYYYRYEYWGQGTQVTVSS”, the “polyreactivity (PSR sort gate)” value is given as “low polyreactivity”.

With “QVQLVESGGGLDQAGGSLRLSCAASGSTFTSYDMGWYIQAPGKERELVAAITISSGGTYYADSVKGRFTISRDTAKNTVYLQMNSLKPEDTEVYYCAADIFADASYDYWGLGTQVTVSS”, the “polyreactivity (PSR sort gate)” value is on record as “low polyreactivity”.

In the case of “QVQLVESGGGLVQAGGSLRLSCAASGFTFDNYAMGWYRQAPGKERELVAAISSGGGRTYYADSVKGRFTISRDNAKNTVYLLMNSLKPEDTAVYYCAAVTLYKRYDYWGQGTQVTVSS”, the “polyreactivity (PSR sort gate)” value was “high polyreactivity”.

For “QVQLVESGGGLVQAGGSLRLSCAASGSTFNQNAMGWYRQAPGKERELVAAITVDGSSTYYADSVKGRFTISRDNAKNTVYLQMNSLKPEDTAVYYCAAGYSARSSGYTGGYDYWGQGTQVTVSS”, the “polyreactivity (PSR sort gate)” value is on record as “high polyreactivity”.

In the case of “QVQLVESGGGLVQAGGSLRLSCAASGRTRFYAMGWYRQPPGKEREMVAAISGSSGSTYYADSVKGRFTISRDNAKNTVYLQMNSLKPEDTAVYYCAADFWRFYYEYDYWGQGTQVTVSS”, the “polyreactivity (PSR sort gate)” value is recorded as “low polyreactivity”.

For “QVQLVESGGGLVQAGGSLRLSCAASGSIFYLYAMGWYRQAPGKERDVVAAITWRGGITNYADSVKGRFTISRYNAKNTVYLQMNSLKPEVTAVYYCAADPYRFLATELYYWGQGTQVTVSS”, the “polyreactivity (PSR sort gate)” value is “low polyreactivity”.

Consider “QVQLVESGGGLVQAGGSLRLSCAASGSTFYRYTMGWYRQAPGKERELVAAISRGGDSTYYADSVKGRFTISRDNAKNTVYLQMNSLKPEDTAVYYCAANVGARKFGYEYNYWGQGTQVTVSS”, for which the “polyreactivity (PSR sort gate)” value is given as “high polyreactivity”.

Regarding “QVQLVESGGGLVQAGGSLRLSCAASGSTFEYNAMGWYRQAPGKEREFVAASSRTGSRTYYADSVKGRFTISRDNAKHTVYLQMNSLKPEDTAVYYCAVSVPYGMDYWGQGTQLTVSS”, the “polyreactivity (PSR sort gate)” value was “high polyreactivity”.

As for “QVQLVESGGGIVQAGGSLRLSCAASGSIFRYNVMGLYRQAPGKERELVAGITRIGGSTYYADSVKGRFTISRDNAKNTVYLQMNSLKQEDTAVYYCGTARFSYPGPFGWLDEYYYWGQGTQVTVSS”, the “polyreactivity (PSR sort gate)” value is listed as “low polyreactivity”.

For “QVQLVESGGGLVQAGGSLRLSCAASGRFFGRHAMGWYRQAPGKERELVAVISKRGSSTSYADSVKGRFTISRDNAKNTVYLQMNSLKPEDTAVYYCNVFRVAYYATSTYGYDYWGQGTQVTVSS”, the “polyreactivity (PSR sort gate)” value was “high polyreactivity”.

For the sequence “QVQLVESGGGLVQAGGSLRLSCAASGSIFPAIALGWYRQAPGKERELVAGISERGSSTYYADSVKGRFTISRDNAKNTVYLQMNSLKPEDTAVYYCAADDVGRYWSSTHNWARGDYWGQGTQVTVSS”, the “polyreactivity (PSR sort gate)” value was “low polyreactivity”.

As to “QVQLVESGGGLVQAGGSLRLSCVASGSISQTYDMGWYRQAPGKERELVAAISSSGASTYYADSVKGRFTISRDNAKNTVYLQMNSLKPEDTAVYYCNADKFRRYGYWGQGTQVTVSS”, the “polyreactivity (PSR sort gate)” value is “high polyreactivity”.

For the sequence “QVQLVESGGGLVQAGGSLRLICAASGSTFNTYAMGRYRQAPGKERELVAAITWSGGRTYYADSVKGRFTISRDNAKNTVYLQMNSLKPEDTAVYYCAKGKGPTEYDYWGQGTQVTVSS”, the “polyreactivity (PSR sort gate)” value is recorded as “high polyreactivity”.

With “QVQLVESGGGLVQAGGSLRLSCAASGRSIYGYALGWYRQATRKERELVAAIHSGGSTYYADSVKGRFTISRDNAKNTVYLQKNSLKPEDTAVYYCAGYTAYRSRAYFYYWGQGTQVTVSS”, the “polyreactivity (PSR sort gate)” value is “high polyreactivity”.

“QVQLVESGGGLVQAGGSLRLSCAASGRTFVYYAMGWYSQAPGKERELVAAISSSGGSTSYADSVNGRFTISRDNAKNTVYLQMNSVKPEDTAVYYCAADVSVSGYYYWGQGTQVTVSS”: the “polyreactivity (PSR sort gate)” value is recorded as “high polyreactivity”.

Regarding “QVQLVESGGGLVQAGGSLRLSCAASGRIFPLYAMGWYRQAPGKERELVAAITSSGGSTYYADSVKGRFTISRDNAKNTVYLQMNSLKPEDTAVYYCADEGYYSNYHYWGQGTQVTVSS”, the “polyreactivity (PSR sort gate)” value is given as “low polyreactivity”.

For “QVQLVESGGGLVQAGGSLRLSCAATGFTFNRYTMGWYRQAPGKERELVASISVRGSRTYSADSVKGRFTISRDNAKNTVYLQMNSLKPEDTAVYYCNAKTYVYYRLRSYYYWGQGTQVTVSS”, the “polyreactivity (PSR sort gate)” value was “high polyreactivity”.

On to “QVQLVESGGGLVQAGGSLRLSCAASGSIFGQYAMGWYRQAPGKERELVAAISTRGGSTRYADSVKGRFTISRDNAKNTVYLQMNSLKPEDTAVYYCAARVPYIRHLAVDYWGQGTQVTVSS”, for which the “polyreactivity (PSR sort gate)” value is “high polyreactivity”.

Regarding “QVQLVESGGGLVQAGGSLRLSCAASGRIFRGYAMGWYRQAPGKERELVAAISGSGGSTYYADSVKGRFTISRDNAKNTVYLQMNSLKPEDTAVYYCNAGWYFYGETTDDYWGQGTQVTVSS”, the “polyreactivity (PSR sort gate)” value is listed as “low polyreactivity”.

On to “QVQLVESGGGLVQAGGSLRLSCAATGRIFYGYAMGWYRQAPVKERELVAAITRGVSTYYADSVKGRFTISRDNAKNTVYLQMNSLKPEDTAVYYCAIERRVRMDSWGQGTQVTVSS”, for which the “polyreactivity (PSR sort gate)” value is listed as “low polyreactivity”.

Regarding “QVQLVESGGGLVQAGGSLRLSCAASGRTFVKNAMGWYRQAPGKERELVAISWSTGGTYYADSVKGRFTISRDNAKNTVYLQMNSLKPEDTAVYYCNADWGSVNGYSGYYYWGQGTQVTVSS”, the “polyreactivity (PSR sort gate)” value is listed as “low polyreactivity”.

Consider “QVQLVESGGGLVQAGGSLRLSCAASGFIFGDYAMGWYRPAPGKERELVAAITWSGDGTYYADSVKGRFTISRDNAKNTVYLQMNSLKPEDTAVYYCAADFSPRRYHNRSFGYWGQGTQVTVSS”, for which the “polyreactivity (PSR sort gate)” value is “low polyreactivity”.

Turning to “QVQLVESGGGLVQAGGSLRLSCAASGRTFYSYAMGWYRPAPGKERELVAAISRRGGSTYYADSVKGRFTISRDNAKNTVYLQMNSLKPEDTAVYYCAKGGGRVGQPGYDYWGQGTQVTVSS”, the “polyreactivity (PSR sort gate)” value is on record as “high polyreactivity”.

As to “QVQLVESGGGLVQAGGSLRLSCAASGRILRVNAMGWYRQAPGKERELVATITFRGGSTYYADSVKGRCTISRDNAKNTVYLQMNSLKPEDTAVYSCAKVIYRYNETYDYWGQGTQVTVSS”, the “polyreactivity (PSR sort gate)” value is recorded as “high polyreactivity”.

For “QVQLVESGAGLVQAGGSLRLSCAASGLTFEWYAMGWYRPAPGKERELVAAISWNGGSTYYADSVKGRFTISRDNAKNTVYLQMNSLKPEDTAVYYCATSSPRRYYWGQGTQVTVSS”, the “polyreactivity (PSR sort gate)” value is on record as “high polyreactivity”.

For the sequence “QVQLVESGGGLVQAGGSLRLSCAASGSTSRLNAMGWYRQAPGKERELVAAISGSGGRTYYADSVKGRFTISRDTAKTTVYLQMNSQKPEDTAVYYCNAAYSAKVHPEMYYWGPGTQVTVSS”, the “polyreactivity (PSR sort gate)” value is “high polyreactivity”.

As for “QVQLVESGGGLVQAGGSLRLSCAASGSIFGVYAMRWYRQAPGKERELVATISRSGAITYYADSVKGRFTISRDNAKNTVYLQMNSLKPEDTAVYYCAADFFSRDWGQGTQVTVSS”, the “polyreactivity (PSR sort gate)” value is recorded as “low polyreactivity”.

Turning to “QVQLVESWGGLVQAGGSLRLSCAASGRIFKRNTMGWNRQAPGKQRELVAAITGSSGSTYYADSVKGRFTNSRDNAKNTVYLQMNSLKPEDTAVYYCNTVRSVYQYWPYNYWGQGTQVTVSS”, the “polyreactivity (PSR sort gate)” value is listed as “high polyreactivity”.

As for “QVQLVESGGGLVQAGGSLRLSCAVSGRIFRRNVMGWYRQAPGKERELVAGISYSGDSTYYADSVKGRFTISRDNAKKTVYFQMNSLKPEDTAVYYCAAAVAHYRGMYYWGQGTQVTVSS”, the “polyreactivity (PSR sort gate)” value was “low polyreactivity”.

Take “QVQLVESGGGLGQAGGSLRLSCAASGRTFAAYAMGWYRQAPGKERELVAAISAGDGTNYADSVKGRFTISRVNAQNTVYLQMNSLKPEDTAVYYCAAVGPLFWPYYSYRRGYDYWGQGTQVTVSS”: the “polyreactivity (PSR sort gate)” value is recorded as “low polyreactivity”.
